Results reported in patent US20150166671A1 (CHILDREN S MEDICAL CENTER, published 2015).

B1: Xwnt11 (ligand, Xenopus, UniProt P49893 23-353, looked up)
chain: IQWLGLTVNGSRVAWNESEHCRLLDGLVPDQSQLCKRNLELMQSVVNAAKQTKLTCQMTLSDMRWNCSSVENAPSFTPDLSKGTRESAFVYALASATLSHTIARACASGELPTCSCGATPAEVPGTGFRWGGCGDNLHYGLNMGSAFVDAPMKSSKSAGTQATKIMNLHNNAVGRQVLMDSLETKCKCHGVSGSCSVKTCWKGLQDLPHIANELKSKYLGATKVIHRQTGTRRQLVPRELDIRPVRESELVYLVSSPDYCTKNPKLGSYGTQDRLCNKTSVGSDSCNLMCCGRGYNAYTETIVERCQCKYHWCCYVMCKKCERTVERYVCK
B2: TIKI2N-FLAG-6xHIS (protein)
chain: RPQPPDGGQCRPPGSQRDLNSFLWTIRRDPPAYLFGTIHVPYTRVWDFIPDNSKAAFQASTRVYFELDLTDPYTISALASCQLLPHGENLQDVLPHELYWRLKRHLDYVKLMMPSWMTPAQRGKGLYADYLFNAIAGNWERKRPVWVMLMVNSLTERDVRFRGVPVLDLYLAQQAEKMKKTTGAVEQVEEQCHPLNNGLNFSQVLFALNQTLLQQESVRAGSLQASYTTEDLIKHYNCGDLSAVIFNHDTSQLPNFINTTLPPHEQVTAQEIDSYFRQELIYKRNERMGKRVMALLRENEDKICFFAFGAGHFLGNNTVIDILRQAGLEVDHTPAGQAIHSPAPQSPAPSPEGTSTSPAPVTPAAAVPEAPSVTPTAPPEDEDPALSPHLLLPDSLSQLEEFGRQRKWHKRQSTHQRPRQFNDLWVRIEDSTTASPPPLPLQPTHSSGTAKPPFQLSDQLQQQDPPG
B3: TIKI2NΔ-FLAG-6xHIS (protein)
chain: B2 chain
B4: Xwnt8-Myc (ligand)
chain: AWSVNNFLMTGPKAYLTYSASVAVGAQNGIEECKYQFAWERWNCPESTLQLATHNGLRSATRETSFVHAISSAGVMYTLTRNCSMGDFDNCGCDDSRNGRIGGRGWVWGGCSDNAEFGERISKLFVDGLETGQDARALMNLHNNEAGRLAVKETMKRTCKCHGISGSCSIQTCWLQLAEFRDIGNHLKIKHDQALKLEMDKRKMRSGNSADNRGAIADAFSSVAGSELIFLEDSPDYCLKNISLGLQGTEGRECLQSGKNLSQWERRSCKRLCTDCGLRVEEKKTEIISSCNCKFHWCCTVKCEQCKQVVIKHFCARRERDSNMLNTKRKNRGHRR
notes: also called Xenopus wnt8; not shown: Myc tag

Columns and labels:
KRM2N-FLAG-6xHIS = target: T1, KRM2N-FLAG-6xHIS (human, UniProt Q8NCW0 26-364); assay: co-immunoprecipitation from CM with an anti-FLAG antibody, Western blotting
T1 construct: extracellular domain; Negative control; also called human Kremen2; not shown: carboxyl FLAG tag and 6xHIS tag
T1 sequence (looked up): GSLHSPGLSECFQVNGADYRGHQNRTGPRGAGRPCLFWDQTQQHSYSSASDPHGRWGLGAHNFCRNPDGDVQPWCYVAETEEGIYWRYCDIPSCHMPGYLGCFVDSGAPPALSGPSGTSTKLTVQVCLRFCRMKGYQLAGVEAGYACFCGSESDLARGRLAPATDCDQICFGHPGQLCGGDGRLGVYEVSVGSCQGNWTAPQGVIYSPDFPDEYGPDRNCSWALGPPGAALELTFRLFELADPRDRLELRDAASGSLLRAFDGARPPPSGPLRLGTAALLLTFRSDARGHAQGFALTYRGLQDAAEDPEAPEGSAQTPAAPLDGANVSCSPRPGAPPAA
Text: (Y-BB) TIKI2, but not KRM2, interacts with Wnt3a, Xwnt8-Myc, Wnt5a, and Xwnt11. Wnt proteins were each co-expressed with KRM2N or TIKI2N (FLAG tagged) and CM were subjected to immunoprecipitation with an anti-FLAG antibody and Western blotting with indicated antibodies.
The rabbit polyclonal anti-LRP6 antibody has been described (Tamai et al., 2004). Other antibodies were used according to manufacturer's instructions. From Cell Signaling: the rabbit monoclonal anti-Wnt3a (#2721, 1:1000), anti-HA (#3724, 1:1000), anti-Wnt5a (#2530, 1:1000) and anti-FLAG (#8146, 1:2000), from Santa Cruz: anti-Dv12 (sc-13974, 1:1000), anti-HA (sc-7392, 1:1000), and anti-Myc (sc-40, 1:500), from BD Transduction Laboratories: anti-beta-catenin (610154, 1:2000), From Hybridoma Bank: anti-tubulin (E7, 1:5000). Anti-FLAG M2 (A2220) and anti-HA (A2095) Affinity gels are from Sigma Immunoblotting was performed as previously described (MacDonald et al., 2008). For indirect immunofluorescence experiments, HeLa cells were plated on glass coverslips in 12-well plates and transfected with HA*Tiki1 expression construct. To visualize Tiki1 proteins on the cell surface, live cells were incubated with the anti-HA antibody in the culture medium for 30 min. The coverslip was washed with PBS and fixed with 4% paraformaldehyde in PBS for 10 min at room temperature. […]

[1] = target: T2, recombinant human WNT3A, P56704
T2 chain: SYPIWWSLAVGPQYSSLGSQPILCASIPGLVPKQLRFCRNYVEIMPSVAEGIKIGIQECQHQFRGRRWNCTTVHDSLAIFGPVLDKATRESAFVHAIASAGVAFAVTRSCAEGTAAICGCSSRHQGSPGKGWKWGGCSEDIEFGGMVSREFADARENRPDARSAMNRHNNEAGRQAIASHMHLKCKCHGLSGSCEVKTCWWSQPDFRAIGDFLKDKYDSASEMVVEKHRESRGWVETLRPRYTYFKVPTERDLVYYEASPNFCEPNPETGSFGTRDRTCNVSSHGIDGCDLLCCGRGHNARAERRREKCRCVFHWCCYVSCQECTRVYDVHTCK

Row | Binder | binding result (KRM2N-FLAG-6xHIS) | in vitro cleavage of purified HA-Wnt3a by purified protein (Western blotting) (HA-Wnt3a) | in vitro cleavage, mass spectrometry [1]
1 | B1 | no binding |  | 
2 | B2 |  | upon in vitro incubation with purified HA-Wnt3a, triggered Wnt3a cleavage and the disappearance of the HA epitope | MS analyses of recombinant human WNT3A cleaved by TIKI2N in vitro indicated cleavage at identical (major and minor) amino terminal sites as observed in cells
3 | B3 |  | failed to do so in the in vitro assay | 
4 | B4 | no binding |  | 
